{"source": "patent US20260153494A1", "about": "(AGRICUL TURAL UNIVERSITY OF ATHENS, priority 2023, published 2026)", "assay": "Thermal stability (Tm) by differential scanning fluorimetry", "format": "physicochemical", "conditions": "1:1 and 2:1, almost ten days", "description": "The thermostability of FGG-GSTFs, FGGsh101 and FGGsh155 was assessed by differential scanning fluorimetry (DSF) in the presence of the macrocyclic compound CB[8]. CB[8] was added in stoichiometry of 1:1 and 2:1 enzyme to host concentration. The reaction was performed in 50 mM KH2PO4 solution, pH 7.14, using either 15 μM enzyme and 15 μM CB[8] (1:1) or 15 μM enzyme and 7.5 μM CB[8] (2:1). A “control” reaction for each ratio was also measured, where only CB[8]'s solvent of was added to the enzyme. Differential scanning fluorimetry was performed in 20 mM KH2PO4 buffer, pH 7, with 4 μg of protein sample, according to published methods (Huynh & Partch, 2015). Thermal shift assays we carried using a Real-time PCR StepOne™ instrument (Applied Biosystems, USA) and the SYPRO Orange protein dye at a temperature range between 15° C. and 99° C. with a ramping rate of 1%. Temperature of protein denaturation midpoint (Tm) was estimated by the first derivative of the normalized fluorescence data.", "data": [{"molecule": "sh101: phi class cytosolic glutathione S-transferase mutant from DNA shuffling, without FGG tag (protein) MFGGAPVKVFGPAMSTNVARVTLCLEEVGAEYEVVNIDFNTMEHKSPEHLARNPFGQIPAFQDGDLLLWESRAISKYVLRKYKTDEVDLLREGNLKEAAMVDVWTEYDAHTYNPALSPIVYECLINPLMRGLPTNQTVVDESLEKLKKVLEVYEARLSQHKYLAGDFVSFADLNHFPYTFYFMATPHAALFDSYPHVKAWWDRLMARPAVKKIAATMVPPKA", "values": [{"measurement": "effect of CB[8] addition on Tm of enzyme forms that weren't FGG-tagged", "result": "did not induce the appearance of an additional Tm value"}]}]}
